According to patent publication US11786578B2, “Modified relaxin polypeptides and their uses” (AMBRX, INC., priority 2010, dated 2023):
Where two headings read alike, the source gives them in different places. One block for each molecule: values may come before it.

Columns and labels:
[1] = IV; cited from earlier work
[2] = in vivo; details: for Mean Conc.: male SD rats
Description: This example evaluates the pharmacokinetic properties of wild-type (WT) Relaxin compound following a single subcutaneous injection in SD rats.
SD Rats were received from Charles River Laboratories (CRL) at approximately […] of age (approximately 280 g at study start). The animals were received having been jugular vein catheterized at CRL. Animals then acclimated for 3 days prior to being placed on study.
Animals received a single subcutaneous injection on day 1 and PK samples were collected over the subsequent 12 hours. Blood samples were taken from animals treated with WT rhRelaxin for analysis of serum concentration according to the following sampling schedule (sampling times are approximate): Day 1: pre-dose, 0.33, 0.66, 1, 1.5, 2, 3, 4, 5, 6, 9 and 12 hours post-dose.
Compound concentrations were measured using a bridging ECLA based on an assay which was developed at Ambrx. Concentrations were calculated using a standard curve generated from the corresponding dosed compound and reported in an excel spreadsheet format (see appendix). Pharmacokinetic parameters were estimated using the modeling program WinNonlin (Pharsight, version 5.1). Noncompartmental analysis for individual animal data with linear-up/log-down trapezoidal integration was used, and concentration data was uniformly weighted.
Concentration versus time curves were evaluated by non-compartmental analysis (Pharsight, version 4.1). N=5 rats per group, terminal HL, terminal half-life; Cmax, maximum serum concentration measured; Tmax, time at which Cmax occurred: AUCinf, area under the concentration-time curve for all serum sample/timepoints extrapolated to infinity; Cl, apparent total serum clearance; Vz, apparent volume of distribution during terminal phase. Numbers are mean with SD in parentheses.

[3] = biological target: T1, human RXFP4 (Homo sapiens, UniProt Q8TDU9); assay: Inhibition of forskolin-induced cAMP in human RXFP4/CHO-K1 stable line; format: cell-based; details: CHO-K1 stable line, inhibition of forskolin-induced cAMP
T1 construct: expressed in transfected cells
Description: (§1) The RXFP cDNAs, RXFP family members, as well as species orthologs, were obtained from commercially available cDNA clones or amplified from tissue RNAs as follows. Human RXFP1: A cDNA clone was obtained from OpenBiosystems (MHS4426-99239031. Human RXFP2: A cDNA clone for transcript variant 1 was obtained from OpenBiosystems (OHS4559-99620528). Cynomolgus monkey RXFP1: The cDNA was cloned out of Mauritian cyno brain RNA by RT-PCR using the following primers: forward: 5′-[…]-3′ (SEQ ID NO: 37); reverse: 5′-[…]-3′ (SEQ ID NO: 38). Dog RXFP1: The cDNA was cloned out of dog brain RNA by RT-PCR using the following primers: forward: 5′-[…]-3′ (SEQ ID NO: 39); reverse: 5′-[…]-3′ (SEQ ID NO: 40). Rat RXFP1: The cDNA was cloned out of Sprague Dawley rat brain RNA by RT-PCR using the following primers: forward: 5′-[…]-3′ (SEQ ID NO: 41); reverse: 5′-[…]-3 (SEQ ID NO: 42)′. Human RXFP3: A Gateway entry clone in vector pDONR221 was obtained from Invitrogen (IOH28381). Human RXFP4: A Gateway entry clone in vector pDONR201 was obtained. Mouse RXFP1: A Gateway entry clone in vector pDONR223 was obtained from OpenBiosystems (OMM4760-101549000). Using standard procedures (Gateway LR recombination), the RXFP entry clones were transferred into expression vector pEF-DEST51 (Invitrogen). In contrast to the all other RXFP clones, human RXFP4 was transferred into pcDNA3.1 (Invitrogen). For each construct, the RXFP cDNA, as well as its proper insertion into the expression vector, was verified by DNA sequencing.
CHO-K1 cells (ATCC #CRL-9618) were prepared for stable line generation by propagating at 37° C. with 5% CO2 in F-12 plus GlutaMAX-I medium (GIBCO #31765) supplemented with 10% fetal bovine heat-inactivated serum (Invitrogen #16140), and 1× Antibiotic-Antimycotic (GIBCO #15240-096). CHO-K1 cells were transfected with 12 μg of the appropriate expression construct plasmid using the FuGENE® 6 reagent (Roche #11814443 001) and the protocol provided by the manufacturer. One day post-transfection cells were replated into medium containing 10 μg of Blasticidin S HCl per mL (GIBCO #A11139-02). […]

[4] = test system: primary human cardiac fibroblasts (NHCF-V); details: 1 nM
Description: NHCF-V cells were isolated from the ventricle of normal, adult heart tissue. Cells stained positive for smooth muscle α-actin and expressed ≥90% collagen I and ≤10% Von Willebrand factor VIII. Cells at passages 3 through 6 were used for the real-time quantitative reverse transcription-polymerase chain reaction (qRT-PCR) studies. Cells were cultured in FGM™-3 BulletKit™ (Cat. #: CC-4526, Lonza) containing 10% FBS complete medium. At confluence, cells were split and cultured in 6-well plates at a density of 150,000/well for 24 hr in complete medium.
Alter treatment, cells in 6-well plates were harvested or total RN A extraction and qRT-PCR analysis. Total RNA was extracted using the RNeasy Mini Kit (Cat. #: 74106, Qiagen) according to the manufacturer's protocols including the on-column removal of genomic cDNA. Real-time qRT-PCR was performed in a two-step manner; cDNA synthesis and real-time detection were carried out in a PTC-100 Thermal Cycler (MJ Research) and an ABI Prism 7700 Sequence Detection System (Applied Biosystems), respectively. TaqMan Universal PCR Master Mix (Applied Biosystems) was used in subsequent PCR reactions according to the manufacturer's protocols. All qRT-PCR reactions were performed in duplicate. […] Data were analyzed for significance by two-way ANOVA followed by a Bonferroni's multiple comparison test using GraphPad Prism Software, version 5.0.

[5] = biological target: T2, human RXFP3 (Homo sapiens, UniProt Q9NSD7); assay: Inhibition of forskolin-induced cAMP in human RXFP3/CHO-K1 stable line; format: cell-based; details: CHO-K1 stable line
T2 sequence (Q9NSD7 1-469): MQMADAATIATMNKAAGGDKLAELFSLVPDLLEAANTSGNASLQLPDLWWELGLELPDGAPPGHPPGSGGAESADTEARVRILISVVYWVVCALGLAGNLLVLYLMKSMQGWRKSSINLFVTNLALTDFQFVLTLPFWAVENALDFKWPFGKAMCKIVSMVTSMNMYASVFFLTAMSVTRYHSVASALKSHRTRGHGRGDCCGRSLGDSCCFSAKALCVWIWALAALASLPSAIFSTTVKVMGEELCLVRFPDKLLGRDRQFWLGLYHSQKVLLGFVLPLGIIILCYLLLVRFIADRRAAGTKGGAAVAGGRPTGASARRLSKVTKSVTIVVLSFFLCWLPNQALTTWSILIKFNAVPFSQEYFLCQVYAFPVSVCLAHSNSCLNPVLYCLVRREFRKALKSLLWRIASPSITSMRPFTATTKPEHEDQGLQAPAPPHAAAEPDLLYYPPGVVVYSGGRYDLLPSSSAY
Description: as §1, with “For each construct, the RXFP cDNA, as well as its proper insertion into the expression vector, was verified by DNA sequencing.” left out

[6] = biological target: T3, human RXFP2 (Homo sapiens, UniProt Q8WXD0); details: literature value; read-out: EC50 value reported in the literature, human RXFP2; cited from earlier work
[7] = biological target: T3, human RXFP2; assay: cAMP assay in human RXFP2/CHO-K1 stable line; format: cell-based; details: CHO-K1 stable line
Description: as §1, with “For each construct, the RXFP cDNA, as well as its proper insertion into the expression vector, was verified by DNA sequencing.” left out

[8] = 0.5 mg/kg SC, SD rats, mean (SD)
[9] = Sprague-Dawley, rat, serum, sc, 0.5 mg/kg

T3 sequence (Q8WXD0 whole entry): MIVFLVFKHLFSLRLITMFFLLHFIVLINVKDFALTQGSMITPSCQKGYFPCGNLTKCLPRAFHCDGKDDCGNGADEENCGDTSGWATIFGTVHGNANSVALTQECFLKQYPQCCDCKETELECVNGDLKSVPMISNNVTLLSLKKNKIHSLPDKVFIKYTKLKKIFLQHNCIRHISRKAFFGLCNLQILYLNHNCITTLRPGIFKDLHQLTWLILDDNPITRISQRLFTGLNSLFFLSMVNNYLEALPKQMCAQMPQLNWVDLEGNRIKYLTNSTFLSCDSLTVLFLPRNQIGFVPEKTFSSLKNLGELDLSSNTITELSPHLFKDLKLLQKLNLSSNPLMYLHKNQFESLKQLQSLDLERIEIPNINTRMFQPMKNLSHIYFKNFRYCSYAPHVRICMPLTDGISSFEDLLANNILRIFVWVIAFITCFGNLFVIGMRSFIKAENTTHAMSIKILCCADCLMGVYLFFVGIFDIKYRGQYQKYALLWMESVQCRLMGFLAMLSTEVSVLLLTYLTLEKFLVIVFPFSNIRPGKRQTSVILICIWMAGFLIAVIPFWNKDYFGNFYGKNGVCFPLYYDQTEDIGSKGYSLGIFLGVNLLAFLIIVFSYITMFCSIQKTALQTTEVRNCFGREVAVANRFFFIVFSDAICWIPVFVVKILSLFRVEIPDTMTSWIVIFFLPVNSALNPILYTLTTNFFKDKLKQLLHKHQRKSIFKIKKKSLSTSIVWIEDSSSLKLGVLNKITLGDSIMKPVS
T1 sequence (Q8TDU9 whole entry): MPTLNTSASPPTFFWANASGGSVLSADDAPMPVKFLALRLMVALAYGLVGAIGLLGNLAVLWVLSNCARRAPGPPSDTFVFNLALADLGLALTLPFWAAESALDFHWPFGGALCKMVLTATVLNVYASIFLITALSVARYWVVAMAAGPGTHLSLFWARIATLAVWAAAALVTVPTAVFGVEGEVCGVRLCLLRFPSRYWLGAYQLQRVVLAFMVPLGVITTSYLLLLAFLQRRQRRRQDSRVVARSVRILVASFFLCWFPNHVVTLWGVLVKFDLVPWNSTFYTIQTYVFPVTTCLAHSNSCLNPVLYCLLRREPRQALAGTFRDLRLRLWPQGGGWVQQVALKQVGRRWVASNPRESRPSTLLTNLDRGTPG

Molecule: CC[C@H](C)[C@@H]1NC(=O)[C@H](C)NC(=O)[C@H]([C@@H](C)CC)NC(=O)[C@H](CCC(N)=O)NC(=O)[C@H](C)NC(=O)[C@H](CCCNC(=N)N)NC(=O)[C@H](C(C)C)NC(=O)[C@H](CC(C)C)NC(=O)[C@H](CCC(=O)O)NC(=O)[C@H](CCCNC(=N)N)NC(=O)CNC(=O)[C@@H](NC(=O)[C@H](CC(C)C)NC(=O)[C@H](CCCCN)NC(=O)[C@@H](NC(=O)[C@@H](NC(=O)[C@H](CCC(=O)O)NC(=O)[C@H](CCC(=O)O)NC(=O)[C@H](CCSC)NC(=O)[C@H](Cc2c[nH]c3ccccc23)NC(=O)[C@H](CO)NC(=O)[C@@H](N)CC(=O)O)C(C)C)[C@@H](C)CC)CSSC[C@@H]2NC(=O)[C@@H](NC(=O)[C@H](CCCCN)NC(=O)[C@H](CC(N)=O)NC(=O)[C@H](C)NC(=O)[C@H](CC(C)C)NC(=O)[C@H](C)NC(=O)[C@H](CO)NC(=O)[C@H](Cc3ccc(O)cc3)NC(=O)[C@H](CC(C)C)NC(=O)[C@@H](N)CCC(N)=O)CSSC[C@H](NC(=O)CNC(=O)[C@H](C(C)C)NC(=O)[C@H](Cc3c[nH]cn3)NC2=O)C(=O)N[C@@H]([C@@H](C)O)C(=O)N[C@@H](CCCCN)C(=O)N[C@@H](CCCNC(=N)N)C(=O)N[C@@H](CO)C(=O)N[C@@H](CC(C)C)C(=O)N[C@@H](C)C(=O)N[C@@H](CCCNC(=N)N)C(=O)N[C@@H](Cc2ccccc2)C(=O)N[C@H](C(=O)O)CSSC[C@@H](C(=O)NCC(=O)N[C@@H](CCSC)C(=O)N[C@@H](CO)C(=O)N[C@H](C(=O)N[C@@H](Cc2c[nH]c3ccccc23)C(=O)N[C@@H](CO)C(=O)O)[C@@H](C)O)NC1=O [RLX-D-WT]
half-life of intravenously administrated Relaxin 2 in humans [1]: less than 10 minutes | CL (mL/hr) [2, 8]: 1006 (185) mL/hr | Vz (mL/kg) [2, 8]: 1159 (284) mL/kg | AUC(0-inf) [2, 9]: 509 ng·h/mL | Cmax [2, 9]: 258 ng/mL | MRT [2, 9]: 93.6 min | Tmax [2, 9]: 30 min | half-life ([2]; male, SD, rat, serum, sc, 0.5 mg/kg): 48 min | Mean Conc. ([2]; serum, 0.5 mg/kg SC, 6 hr): BQL | Mean Conc. ([2]; serum, 0.5 mg/kg SC, 9 hr): BQL | Mean Conc. ([2]; serum, 0.5 mg/kg SC, 12 hr): BQL | Mean Conc. ([2]; serum, 0.5 mg/kg SC, pre-dose (PD)): BQL

Molecule: CC[C@H](C)[C@@H]1NC(=O)[C@H](C)NC(=O)[C@H]([C@@H](C)CC)NC(=O)[C@H](CCC(N)=O)NC(=O)[C@H](C)NC(=O)[C@H](CCCNC(=N)N)NC(=O)[C@H](C(C)C)NC(=O)[C@H](CC(C)C)NC(=O)[C@H](CCC(=O)O)NC(=O)[C@H](CCCNC(=N)N)NC(=O)CNC(=O)[C@@H](NC(=O)[C@H](CC(C)C)NC(=O)[C@H](CCCCN)NC(=O)[C@@H](NC(=O)[C@@H](NC(=O)[C@H](CCC(=O)O)NC(=O)[C@H](CCC(=O)O)NC(=O)[C@H](CCSC)NC(=O)[C@H](Cc2c[nH]c3ccccc23)NC(=O)[C@H](CO)NC(=O)[C@@H](N)CC(=O)O)C(C)C)[C@@H](C)CC)CSSC[C@@H]2NC(=O)[C@@H](NC(=O)[C@H](CCCCN)NC(=O)[C@H](CC(N)=O)NC(=O)[C@H](C)NC(=O)[C@H](CC(C)C)NC(=O)[C@H](C)NC(=O)[C@H](CO)NC(=O)[C@H](Cc3ccc(O)cc3)NC(=O)[C@H](CC(C)C)NC(=O)[C@@H](N)CCC(N)=O)CSSC[C@H](NC(=O)CNC(=O)[C@H](C(C)C)NC(=O)[C@H](Cc3c[nH]cn3)NC2=O)C(=O)N[C@@H]([C@@H](C)O)C(=O)N[C@@H](CCCCN)C(=O)N[C@@H](CCCNC(=N)N)C(=O)N[C@@H](CO)C(=O)N[C@@H](CC(C)C)C(=O)N[C@@H](C)C(=O)N[C@@H](CCCNC(=N)N)C(=O)N[C@@H](Cc2ccccc2)C(=O)N[C@H](C(=O)O)CSSC[C@@H](C(=O)NCC(=O)N[C@@H](CCSC)C(=O)N[C@@H](CO)C(=O)N[C@H](C(=O)N[C@@H](Cc2c[nH]c3ccccc23)C(=O)N[C@@H](CO)C(=O)O)[C@@H](C)O)NC1=O [WT-RLX]
cAMP Assay EC50, Human RXFP4 [3]: essentially inactive | Maximal inhibition of collagen type I expression vs TGF-β only treatment [4]: ≥ 70% | cAMP Assay EC50, Human RXFP3 [5]: essentially inactive

EC50 [7]: 0.46 ± 0.04 nM
B1: INSL3: endogenous ligand for RXFP2 (insulin like 3 protein), R&D Systems (protein, UniProt P51460 21-55; P51460 106-131, looked up)
Insulin-like 3 B chain: LGPAPTPEMREKLCGHHFVRALVRVCGGPRWSTEA
Insulin-like 3 A chain: AAATNPARYCCLSGCTQQDLLTLCPY
EC50 [6]: 0.58 nM
